These results are taken from PMC2516929, “Yersinia enterocolitica Serum Resistance Proteins YadA and Ail Bind the Complement Regulator C4b-Binding Protein” (PLoS Pathogens, 2008).

For test [1], the target named is T1, Ail of Y. enterocolitica serotype O:3, expressed in trans from pTM100-ail on strain YeO3-c-Ail-OCR (Y. enterocolitica serotype O:3, UniProt Q70AM3 24-178).
T1 construct: Ail, Y. enterocolitica serotype O:3, ail gene cloned as 1711 bp PCR fragment into pTM100; GenBank protein CAE53849; Same protein as m5, from a plasmid; also called Ail (complemented); YeO3-c-Ail-OCR/pTM100-ail; source: pTM100-ail (cloned ail gene) in Y. enterocolitica YeO3-c-Ail-OCR (YadA-, Ail-, O-ag-, OC-), on the bacteria; overexpressed
T1 sequence: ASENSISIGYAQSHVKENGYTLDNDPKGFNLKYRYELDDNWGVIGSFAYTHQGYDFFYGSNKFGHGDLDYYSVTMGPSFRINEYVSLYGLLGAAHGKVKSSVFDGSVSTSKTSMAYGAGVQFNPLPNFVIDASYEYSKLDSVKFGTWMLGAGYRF
In words: radioligand binding; 125I-C4bp (or 125I-BSA) with 3x10^8 bacteria in hypotonic 1/3 GVBS (50 mM NaCl), 30 min at 37°C; bacteria pelleted through 20% sucrose; bound as percent of total radioactivity. The settings on record: one partner purified.

For test [2], the target named is T2, YadA of Y. enterocolitica serotype O:3 (strain 6471/76), on the bacterial surface (Y. enterocolitica serotype O:3 (strain …, UniProt P31489 26-455)).
T2 construct: adhesin YadA, Y. enterocolitica 6471/76 serotype O:3, GenBank protein CAA32086; trimeric outer membrane protein; also called YadA (wild type, YeO3); source: endogenous (virulence plasmid pYV), on Y. enterocolitica O:3 strain 6471/76 (YeO3), grown in RPMI 1640 at 37°C
T2 sequence: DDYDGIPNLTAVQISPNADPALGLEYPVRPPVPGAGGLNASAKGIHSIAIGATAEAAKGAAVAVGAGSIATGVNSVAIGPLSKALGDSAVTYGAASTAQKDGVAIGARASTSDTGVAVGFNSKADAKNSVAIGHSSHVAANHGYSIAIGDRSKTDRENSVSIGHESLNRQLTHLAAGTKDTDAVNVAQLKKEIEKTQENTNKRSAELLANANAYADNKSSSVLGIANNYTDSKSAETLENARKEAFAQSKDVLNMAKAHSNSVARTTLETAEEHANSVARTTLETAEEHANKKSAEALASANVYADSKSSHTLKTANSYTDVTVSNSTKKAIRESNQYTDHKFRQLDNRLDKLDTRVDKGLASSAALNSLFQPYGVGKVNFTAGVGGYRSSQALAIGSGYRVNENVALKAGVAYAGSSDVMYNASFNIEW
Briefly: radioligand binding; 125I-C4bp with 3x10^8 bacteria in 1/3 GVBS with NaCl from 50 to 650 mM; binding as percent of that at 50 mM NaCl. The settings on record: one partner purified.

B1: C4b-binding protein (C4bp) with protein S (complex)
chain 1: NCGPPPTLSFAAPMDITLTETRFKTGTTLKYTCLPGYVRSHSTQTLTCNSDGEWVYNTFCIYKRCRHPGELRNGQVEIKTDLSFGSQIEFSCSEGFFLIGSTTSRCEVQDRGVGWSHPLPQCEIVKCKPPPDIRNGRHSGEENFYAYGFSVTYSCDPRFSLLGHASISCTVENETIGVWRPSPPTCEKITCRKPDVSHGEMVSGFGPIYNYKDTIVFKCQKGFVLRGSSVIHCDADSKWNPSPPACEPNSCINLPDIPHASWETYPRPTKEDVYVVGTVLRYRCHPGYKPTTDEPTTVICQKNLRWTPYQGCEALCCPEPKLNNGEITQHRKSRPANHCVYFYGDEISFSCHETSRFSAICQGDGTWSPRTPSCGDICNFPPKIAHGHYKQSSSYSFFKEEIIYECDKGYILVGQAKLSCSYSHWSAPAPQCKALCRKPELVNGRLSVDKDQYVEPENVTIQCDSGYGVVGPQSITCSGNRTWYPEVPKCEWETPEGCEQVLTGKRLMQCLPNPEDVKMALEVYKLSLEIEQLELQRDSARQSTLDKEL
chain 2: SDAEHCPELPPVDNSIFVAKEVEGQILGTYVCIKGYHLVGKKTLFCNASKEWDNTTTECRLGHCPDPVLVNGEFSSSGPVNVSDKITFMCNDHYILKGSNRSQCLEDHTWAPPFPICKSRDCDPPGNPVHGYFEGNNFTLGSTISYYCEDRYYLVGVQEQQCVDGEWSSALPVCKLIQEAPKPECEKALLAFQESKNLCEAMENFMQQLKESGMTMEELKYSLELKKAELKAKLL
chain 3: ANSLLEETKQGNLERECIEELCNKEEAREVFENDPETDYFYPKYLVCLRSFQTGLFTAARQSTNAYPDLRSCVNAIPDQCSPLPCNEDGYMSCKDGKASFTCTCKPGWQGEKCEFDINECKDPSNINGGCSQICDNTPGSYHCSCKNGFVMLSNKKDCKDVDECSLKPSICGTAVCKNIPGDFECECPEGYRYNLKSKSCEDIDECSENMCAQLCVNYPGGYTCYCDGKKGFKLAQDQKSCEVVSVCLPLNLDTKYELLYLAEQFAGVVLYLKFRLPEISRFSAEFDFRTYDSEGVILYAESIDHSAWLLIALRGGKIEVQLKNEHTSKITTGGDVINNGLWNMVSVEELEHSISIKIAKEAVMDINKPGPLFKPENGLLETKVYFAGFPRKVESELIKPINPRLDGCIRSWNLMKQGASGIKEIIQEKQNKHCLVTVEKGSYYPGSGIAQFHIDYNNVSSAEGWHVNVTLNIRPSTGTGVMLALVSGNNTVPFAVSLVDSTSEKSQDILLSVENTVIYRIQALSLCSDQQSHLEFRVNRNNLELSTPLKIETISHEDLQRQLAVLDKAMKAKVATYLGGLPDVPFSATPVNAFYNGCMEVNINGVQLDLDEAISKHNDIRAHSCPSVWKKTKNS
modifications: 125I label (Iodogen method) in the 125I-C4bp assays; labelled chain and residues not stated
notes: eight CCP domains; the predominant form has seven identical alpha chains; three CCP domains; one beta chain in the predominant form; protein S, human; co-purified with C4bp from plasma ('C4bp with protein S'); also called 125I-C4bp; serum C4bp; source: purified from pooled human plasma (with protein S); copies: 7 + 1 +
As to B1, the “fold C4bp binding capacity against strain YeO3-c-OCR” value in test [1] is around 4 fold. In test [2], the “fold decrease of C4bp binding at 100 mM NaCl against 50 mM NaCl” value was 2 fold.
